This is an account of results in patent publication US20250376529A1 (Amgen, published 2025).

The labels stand for the following.
T1: Rhesus GIPR (rhesus, UniProt F7E1R9 22-466)
T1 sequence: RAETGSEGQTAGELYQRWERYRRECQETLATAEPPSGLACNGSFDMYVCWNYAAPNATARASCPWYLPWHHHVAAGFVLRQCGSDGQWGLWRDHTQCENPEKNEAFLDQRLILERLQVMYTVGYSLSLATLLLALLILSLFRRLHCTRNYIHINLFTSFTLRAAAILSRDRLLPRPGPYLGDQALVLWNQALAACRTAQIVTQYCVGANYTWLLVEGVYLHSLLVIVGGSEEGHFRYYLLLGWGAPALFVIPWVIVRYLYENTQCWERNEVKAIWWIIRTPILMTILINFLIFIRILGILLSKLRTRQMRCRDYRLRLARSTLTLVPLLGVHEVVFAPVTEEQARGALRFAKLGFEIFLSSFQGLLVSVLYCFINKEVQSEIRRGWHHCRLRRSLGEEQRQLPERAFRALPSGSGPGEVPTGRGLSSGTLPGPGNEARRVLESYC

B1: 18F2.012 (antibody, human IgG1, kappa, N297G, V domains shown)
VH: not shown
VL: DIQMTQSPSSLSASIGDRVTITCRASQDLRNYLGWYQQKPGKAPKLLIYGASSLQSGVPSRFSGSGSGTEFTLTISSLQPEDFATYYCLQHNNYPFTFGPGTKVDIKR
B2: 6H1.002 (antibody, human IgG1, kappa, N297G, V domains shown)
VH: not shown
VL: DIQMTQSPSSLSASIGDRVTITCRASQDIRDYLGWYQQKPGKAPKRLIYGASSLQSGVPSRFSGSGSGTEFTLTISSLQPEDFATYYCLQHNNYPFTFGPGTKVDIKR
B3: 6H1.007 (antibody, human IgG1, kappa, N297G, V domains shown)
VH: QVQLVESGGGVVQPGRSLRLSCAASGFTFSYFGMHWVRQAPGKGLEWVAVIWYDASNKYYADSVKGRFTISRDNSKNTLYLQMNSLRAEDTAVYYCARDGTIFGVLLGDYWGQGTLVTVSS
VL: DIQMTQSPSSLSASIGDRVTITCRASQDIRDYLGWYQQKPGKAPKLLIYGASSLQSGVPSRFSGSGSGTEFTLTISSLQPEDFATYYCLQHNNYPFTFGPGTKVDIKR
B4: 18F2.002 (antibody, human IgG1, kappa, N297G, V domains shown)
VH: not shown
VL: DIQMTQSPSSLSASIGDRVTITCRASQDLRNYLGWYQQKPGKAPKLLIYGASSLQSGVPSRFSGSGSGTEFTLTISSLQPEDFATYYCLQHNNYPFTFGPGTKVDIKR
B5: 6H1.005 (antibody, human IgG1, kappa, N297G, V domains shown)
VH: not shown
VL: DIQMTQSPSSLSASIGDRVTITCRASQDIRDYLGWYQQKPGKAPKLLIYGASSLQSGVPSRFSGSGSGTEFTLTISSLQPEDFATYYCLQHNNYPFTFGQGTKVDIKR
B6: 6H1.006 (antibody, human IgG1, kappa, N297G, V domains shown)
VH: QVQLVESGGGVVQPGRSLRLSCAASGFTFSYFGMHWVRQAPGKGLEWVAVIWYDGSNKYYADSVKGRFTISRDNSKNTLYLQMNSLRAEDTAVYYCARDGTIFGVLLGDYWGQGTLVTVSS
VL: DIQMTQSPSSLSASIGDRVTITCRASQDIRDYLGWYQQKPGKAPKLLIYGASSLQSGVPSRFSGSGSGTEFTLTISSLQPEDFATYYCLQHNNYPFTFGPGTKVDIKR
B7: 18F2 (antibody, human IgG1, kappa, N297G, V domains shown)
VH: QVQLVESGGGVVQPGRSLRLSCAASGFTFSNFGMHWVRQAPGKGLEWVAVIWYDGSNENYADSVKGRFTISRDNSKNTLYLHMNSLRAADTAVYYCARDGTIFGVVLGDYWGQGTLVTVSS
VL: DIQMTQSPSSLSASIGDRVTITCRASQDLRNYLGWYHQKPGKAPKRLIYGASSLQSGVPSRFSGSGSGTEFTLTISSLQPEDFATYYCLQHNNYPFTFGPGTKVDIKR
B8: 18F2.007 (antibody, human IgG1, kappa, N297G, V domains shown)
VH: QVQLVESGGGVVQPGRSLRLSCAASGFTFSNFGMHWVRQAPGKGLEWVAVIWYDASNENYADAVKGRFTISRDNSKNTLYLHMNSLRAADTAVYYCARDGTIFGVVLGDYWGQGTLVTVSS
VL: DIQMTQSPSSLSASIGDRVTITCRASQDLRNYLGWYHQKPGKAPKLLIYGASSLQSGVPSRFSGSGSGTEFTLTISSLQPEDFATYYCLQHNNYPFTFGPGTKVDIKR
B9: 18F2.008 (antibody, human IgG1, kappa, N297G, V domains shown)
VH: not shown
VL: DIQMTQSPSSLSASIGDRVTITCRASQDLRNYLGWYHQKPGKAPKRLIYGASSLQSGVPSRFSGSGSGTEFTLTISSLQPEDFATYYCLQHNNYPFTFGPGTKVDIKR
B10: 18F2.004 (antibody, human IgG1, kappa, N297G, V domains shown)
VH: not shown
VL: DIQMTQSPSSLSASIGDRVTITCRASQDLRNYLGWYHQKPGKAPKLLIYGASSLQSGVPSRFSGSGSGTEFTLTISSLQPEDFATYYCLQHNNYPFTFGPGTKVDIKR
B11: 4B1.016 (antibody, human IgG1, kappa, N297G, V domains shown)
VH: not shown
VL: DIQMTQSPSSLSASIGDRVTITCRASQDIRDYLGWYQQKPGKAPKLLIYGASSLQSGVPSRFSGSGSGTEFTLTISSLQPEDFATYYCLQHNNYPFTFGQGTKVDIKR
B12: 4B1.011 (antibody, human IgG1, kappa, N297G, V domains shown)
VH: not shown
VL: DIQMTQSPSSLSASIGDRVTITCRASQDIRDYLGWYQQKPGKAPKRLIYGASSLQSGVPSRFSGSGSGTEFTLTISSLQPEDFATYYCLQHNNYPFTFGQGTKVDIKR
B13: 18F2.005 (antibody, human IgG1, kappa, N297G, V domains shown)
VH: not shown
VL: DIQMTQSPSSLSASIGDRVTITCRASQDLRNYLGWYQQKPGKAPKRLIYGASSLQSGVPSRFSGSGSGTEFTLTISSLQPEDFATYYCLQHNNYPFTFGPGTKVDIKR
B14: 6H1.004 (antibody, human IgG1, kappa, N297G, V domains shown)
VH: not shown
VL: DIQMTQSPSSLSASIGDRVTITCRASQDIRDYLGWYQQKPGKAPKLLIYGASSLQSGVPSRFSGSGSGTEFTLTISSLQPEDFATYYCLQHNNYPFTFGQGTKVDIKR
notes: also called iPS:359873; iPS:359875
B15: 4B1.013 (antibody, human IgG1, kappa, N297G, V domains shown)
VH: QVQLVESGGGVVQPGRSLRLSCAASGFTFSNFGMHWVRQAPGKGLEWVAVIWYDASNENYADSVKGRFTISRDNSKNTLYLHMNSLRVADTAVYYCARDGTIFGVVLGDYWGQGTLVTVSS
VL: DIQMTQSPSSLSASIGDRVTITCRASQDIRDYLGWYQQKPGKAPKLLIYGASSLQSGVPSRFSGSGSGTEFTLTISSLQPEDFATYYCLQHNNYPFTFGQGTKVDIKR
B16: 6H1.008 (antibody, human IgG1, kappa, N297G, V domains shown)
VH: not shown
VL: DIQMTQSPSSLSASIGDRVTITCRASQDIRDYLGWYQQKPGKAPKLLIYGASSLQSGVPSRFSGSGSGTEFTLTISSLQPEDFATYYCLQHNNYPFTFGPGTKVDIKR
B17: 6H1.009 (antibody, human IgG1, kappa, N297G)
heavy: not shown
light: DIQMTQSPSSLSASIGDRVTITCRASQDIRDYLGWYQQKPGKAPKRLIYGASSLQSGVPSRFSGSGSGTEFTLTISSLQPEDFATYYCLQHNNYPFTFGQGTKVDIKRTVAAPSVFIFPPSDEQLKSGTASVVCLLNNFYPREAKVQWKVDNALQSGNSQESVTEQDSKDSTYSLSSTLTLSKADYEKHKVYACEVTHQGLSSPVTKSFNRGEC
B18: 18F2.006 (antibody, human IgG1, kappa, N297G, V domains shown)
VH: QVQLVESGGGVVQPGRSLRLSCAASGFTFSNFGMHWVRQAPGKGLEWVAVIWYDASNENYADAVKGRFTISRDNSKNTLYLHMNSLRAADTAVYYCARDGTIFGVVLGDYWGQGTLVTVSS
VL: DIQMTQSPSSLSASIGDRVTITCRASQDLRNYLGWYQQKPGKAPKRLIYGASSLQSGVPSRFSGSGSGTEFTLTISSLQPEDFATYYCLQHNNYPFTFGPGTKVDIKR
B19: 18F2.003 (antibody, human IgG1, kappa, N297G, V domains shown)
VH: QVQLVESGGGVVQPGRSLRLSCAASGFTFSNFGMHWVRQAPGKGLEWVAVIWYDASNENYADAVKGRFTISRDNSKNTLYLHMNSLRAADTAVYYCARDGTIFGVVLGDYWGQGTLVTVSS
VL: DIQMTQSPSSLSASIGDRVTITCRASQDLRNYLGWYQQKPGKAPKLLIYGASSLQSGVPSRFSGSGSGTEFTLTISSLQPEDFATYYCLQHNNYPFTFGPGTKVDIKR
B20: 4B1.014 (antibody, human IgG1, kappa, N297G, V domains shown)
VH: QVQLVESGGGVVQPGRSLRLSCAASGFTFSNFGMHWVRQAPGKGLEWVAVIWYDGSNENYADAVKGRFTISRDNSKNTLYLHMNSLRVADTAVYYCARDGTIFGVVLGDYWGQGTLVTVSS
VL: DIQMTQSPSSLSASIGDRVTITCRASQDIRDYLGWYQQKPGKAPKLLIYGASSLQSGVPSRFSGSGSGTEFTLTISSLQPEDFATYYCLQHNNYPFTFGQGTKVDIKR
B21: 4B1.015 (antibody, human IgG1, kappa, N297G, V domains shown)
VH: not shown
VL: DIQMTQSPSSLSASIGDRVTITCRASQDIRDYLGWYQQKPGKAPKLLIYGASSLQSGVPSRFSGSGSGTEFTLTISSLQPEDFATYYCLQHNNYPFTFGQGTKVDIKR
B22: 4B1 (antibody, human IgG1, kappa, N297G, V domains shown)
VH: QVQLVESGGGVVQPGRSLRLSCAASGFTFSNFGMHWVRQAPGKGLEWVAVIWYDGSNENYADSVKGRFTISRDNSKNTLYLHMNSLRVADTAVYYCARDGTIFGVVLGDYWGQGTLVTVSS
VL: DIQMTQSPSSLSASIGDRVTITCRASQDIRDYLGWYQQKPGKAPKRLIYGASSLQSGVPSRFSGSGSGTEFTLTISSLQPEDFATYYCLQHNNYPFTFGPGTKVDIKR
B23: 4H9.004.001 (antibody, human IgG1, kappa, N297G)
heavy: not shown
light: DIQMTQSPSSLSASVGDRVTITCRASQGIRNELGWYQQKPGKAPKLLIYGASSLQSGVPSRFSGSGSGTEFTLTISSLQPEDFVTYYCLQHNSYPFTFGQGTKVDVKRTVAAPSVFIFPPSDEQLKSGTASVVCLLNNFYPREAKVQWKVDNALQSGNSQESVTEQDSKDSTYSLSSTLTLSKADYEKHKVYACEVTHQGLSSPVTKSFNRGEC
B24: 4H9.004.004 (antibody, human IgG1, kappa, N297G)
heavy: not shown
light: DIQMTQSPSSLSASVGDRVTITCRASQGIRNELGWYQQKPGKAPKLLIYGASSLQSGVPSRFSGSGSGTEFTLTISSLQPEDFVTYYCLQHNSYPFTFGPGTKVDVKRTVAAPSVFIFPPSDEQLKSGTASVVCLLNNFYPREAKVQWKVDNALQSGNSQESVTEQDSKDSTYSLSSTLTLSKADYEKHKVYACEVTHQGLSSPVTKSFNRGEC

The test concerns the target T1, Rhesus GIPR. Put plainly: cell-based or functional assay.
Regarding B1, the “Rhesus GIPR CAMP Assay (Conc. mAb @ 60% Inhibition in nM)” value is 1.88 nM.

As for B2, the “Rhesus GIPR CAMP Assay (Conc. mAb @ 60% Inhibition in nM)” value is 0.31 nM.

B3: the “Rhesus GIPR CAMP Assay (Conc. mAb @ 60% Inhibition in nM)” value worked out at 0.55 nM.

For the molecule B4, the “Rhesus GIPR CAMP Assay (Conc. mAb @ 60% Inhibition in nM)” value came out at 2.23 nM.

As for B5, the “Rhesus GIPR CAMP Assay (Conc. mAb @ 60% Inhibition in nM)” value was determined as 0.49 nM.

Take B6: the “Rhesus GIPR CAMP Assay (Conc. mAb @ 60% Inhibition in nM)” value turned out to be 0.47 nM.

For the molecule B7, the “Rhesus GIPR CAMP Assay (Conc. mAb @ 60% Inhibition in nM)” value amounted to 0.8 nM.

Turning to B8, the “Rhesus GIPR CAMP Assay (Conc. mAb @ 60% Inhibition in nM)” value is 1.94 nM.

Regarding B9, the “Rhesus GIPR CAMP Assay (Conc. mAb @ 60% Inhibition in nM)” value came out at 1.76 nM.

On to B10, for which the “Rhesus GIPR CAMP Assay (Conc. mAb @ 60% Inhibition in nM)” value is 2.72 nM.

Take B11: the “Rhesus GIPR CAMP Assay (Conc. mAb @ 60% Inhibition in nM)” value amounted to 1.57 nM.

Take B12: the “Rhesus GIPR CAMP Assay (Conc. mAb @ 60% Inhibition in nM)” value came to 0.51 nM.

For the molecule B13, the “Rhesus GIPR CAMP Assay (Conc. mAb @ 60% Inhibition in nM)” value was 1.13 nM.

Regarding B14, the “Rhesus GIPR CAMP Assay (Conc. mAb @ 60% Inhibition in nM)” value stood at 0.79 nM.

As for B15, the “Rhesus GIPR CAMP Assay (Conc. mAb @ 60% Inhibition in nM)” value was found to be 1.35 nM.

With B16, the “Rhesus GIPR CAMP Assay (Conc. mAb @ 60% Inhibition in nM)” value amounted to 0.44 nM.

With B17, the “Rhesus GIPR CAMP Assay (Conc. mAb @ 60% Inhibition in nM)” value was 0.15 nM.

For B18, the “Rhesus GIPR CAMP Assay (Conc. mAb @ 60% Inhibition in nM)” value worked out at 0.52 nM.

Regarding B19, the “Rhesus GIPR CAMP Assay (Conc. mAb @ 60% Inhibition in nM)” value is 2.01 nM.

With B20, the “Rhesus GIPR CAMP Assay (Conc. mAb @ 60% Inhibition in nM)” value was 0.95 nM.

As to B21, the “Rhesus GIPR CAMP Assay (Conc. mAb @ 60% Inhibition in nM)” value came out at 0.84 nM.

B22: the “Rhesus GIPR CAMP Assay (Conc. mAb @ 60% Inhibition in nM)” value amounted to 0.67 nM.

Take B23: the “Rhesus GIPR CAMP Assay (Conc. mAb @ 60% Inhibition in nM)” value amounted to 0.43 nM.

Take B24: the “Rhesus GIPR CAMP Assay (Conc. mAb @ 60% Inhibition in nM)” value was found to be 0.44 nM.
